Legend:
[1] = molecular target: T1, HLA-DR1 (DR1 alpha/beta; DRA and DRB1*0101) on the cell surface (human); test: flow cytometry on human MHC class II expressing cells
[2] = molecular target: T1, HLA-DR1 (DR1 alpha/beta; DRA and …); test: flow cytometry on HLA-DR-bearing cells, FITC rabbit anti-TSST-1
[3] = molecular target: T1, HLA-DR1 (DR1 alpha/beta; DRA and …); test: flow cytometry on HLA-DR-bearing cells, FITC rabbit anti-SpeA
[4] = molecular target: T1, HLA-DR1 (DR1 alpha/beta; DRA and …); test: flow cytometry; toxin on cells bearing HLA-DR1

B1: staphylococcal enterotoxin A (SEA), wild type (ligand)
chain: SEKSEEINEKDLRKKSELQGTALGNLKQIYYYNEKAKTENKESHDQFLQHTILFKGFFTDHSWYNDLLVDFDSKDIVDKYKGKKVDLYGAYYGYQCAGGTPNKTACMYGGVTLHDNNRLTEEKKVPINLWLDGKQNTVPLETVKTNKKNVTVQELDLQARRYLQEKYNLYNSDVFDGKVQRGLIVFHTSTEPSVNYDLFGAQGQYSNTLLRIYRDNKTINSENMHIDIYLYTS
B1: binds [1].

B2: toxic shock syndrome toxin-1 (TSST-1), wild type (ligand)
chain: STNDNIKDLLDWYSSGSDTFTNSEVLDNSLGSMRIKNTDGSISLIIFPSPYYSPAFTKGEKVDLNTKRTKKSQHTSEGTYIHFQISGVTNTEKLPTPIELPLKVKVHGKDSPLKYGPKFDKKQLAISTLDFEIRHQLTQIHGLYRSSDKTGGYWKITMNDGSTYQSDLSKKFEYNTEKPPINIDEIKTIEAEIN
B2: binds [2].

B3: SpeA mutant L42A (ligand)
chain: QQDPDPSQLHRSSLVKNLQNIYFLYEGDPVTHENVKSVDQLASHDLIYNVSGPNYDKLKTELKNQEMATLFKDKNVDIYGVEYYHLCYLCENAERSACIYGGVTNHEGNHLEIPKKIVVKVSIDGIQSLSFDIETNKKMVTAQELDYKVRKYLTDNKQLYTNGPSKYETGYIKFIPKNKESFWFDFFPEPEFTQSKYLMIYKDNETLDSNTSQIEVYLTTK
B3: binds [3].

B4: staphylococcal enterotoxin D (SED) (ligand)
chain: NENIDSVKEKELHKKSELSSTALNNMKHSYADKNPIIGENKSTGDQFLENTLLYKKFFTDLINFEDLLINFNSKEMAQHFKSKNVDVYPIRYSINCYGGEIDRTACTYGGVTPHEGNKLKERKKIPINLWINGVQKEVSLDKVQTDKKNVTVQELDAQARRYLQKDLKLYNNDTLGGKIQRGKIEFDSSDGSKVSYDLFDVKGDFPEKQLRIYSDNKTLSTEHLHIDIYLYEK
B4: binds [4].
